This is an account of results in paper PMC10869282.

Broadly, the stoichiometry N is the number of molecules, sites or subunits per partner or assembly.

Test [1] has as its target cis-epoxysuccinate hydrolase producing L(+)-tartaric acid from Klebsiella sp. BK-58 (KlCESH[L]) (Klebsiella sp. BK-58). The test is described as follows: SEC; gel filtration of the purified enzyme against a molecular standard mixture (ovalbumin, chymotrypsin, ribonuclease A, aprotinin); aggregation state of RhCESH[L] unchanged in the presence or absence of DTT.
Test [2] concerns the target cis-epoxysuccinate hydrolase producing L(+)-tartaric acid from Rhodococcus opacus (RhCESH[L]) (Rhodococcus opacus). The test is described as above.

On to “cis-epoxysuccinate hydrolase producing L(+)-tartaric acid from Klebsiella sp. BK-58 (KlCESH[L]) (enzyme)”, for which the stoichiometry N in test [1] is 2. As for “cis-epoxysuccinate hydrolase producing L(+)-tartaric acid from Rhodococcus opacus (RhCESH[L]) (enzyme)”, in test [2], the stoichiometry N came out at 2.
